In PMC10628517, “CXCL17 binds efficaciously to glycosaminoglycans with the potential to modulate chemokine signaling” (Frontiers in Immunology, 2023):

Target: the molecule itself
Experiment: reducing SDS-PAGE and Western blot; serial dilutions of recombinant CXCL17 (24–119), 1.25–10 μM, resolved by reducing SDS-PAGE and probed with anti-CXCL17; bands of 14 kDa and 28 kDa read as monomer and dimer; the 28-kDa species seen at 5 μM and above

B1: recombinant human CXCL17 (24–119) (natural protein, UniProt Q6UXB2 24-119, looked up)
chain: LNPGVARGHRDRGQASRRWLQEGGQECECKDWFLRAPRRKFMTVSGLPKKQCPCDHFKGNVKKTRHQRHHRKPNKHSRACQQFLKQCQLRSFALPL
notes: human CXCL17, residues 24-119 (Leu24–Leu119), the commercially available form without the predicted signal peptide; UniProt Q6UXB2; The text calls the protein on the blots commercially available; also called Leu24–Leu119 form of CXCL17; source: bought: R&D Systems; produced in E. coli
B1 was tested, and the “ratio of monomer:dimer” value was ~3 monomer:dimer.
